According to PMC7587234:

What was measured:
Test in all cases: SPR
[1] = target: cynomolgus monkey neonatal Fc receptor (cyno FcRn), soluble heterodimer (UniProt Q8SPV9+Q8SPW0); details: pH 7.4; not stated (pH 7.4)
[2] = target: human neonatal Fc receptor (hFcRn), soluble heterodimer (UniProt P55899+P61769); details: pH 7.4; not stated (pH 7.4)
FcγRIIIa = FcγRIIIa (UniProt P08637)
[3] = target: biotinylated cynomolgus FcRn, p51 subunit with β2-m (cynomolgus monkey) (UniProt Q8SPV9)
[4] = target: biotinylated human neonatal Fc receptor (hFcRn), p51 subunit with β2-m (human) (UniProt P55899)

Chain of UniProt P08637 (P08637 17-208): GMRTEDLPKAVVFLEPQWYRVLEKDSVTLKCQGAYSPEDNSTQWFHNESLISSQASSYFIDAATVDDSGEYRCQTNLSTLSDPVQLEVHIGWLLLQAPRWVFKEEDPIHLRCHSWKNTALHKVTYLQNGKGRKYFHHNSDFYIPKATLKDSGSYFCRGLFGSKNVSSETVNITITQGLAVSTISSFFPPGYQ
Chain of UniProt Q8SPV9 (Q8SPV9 24-297, chain 1 of 2): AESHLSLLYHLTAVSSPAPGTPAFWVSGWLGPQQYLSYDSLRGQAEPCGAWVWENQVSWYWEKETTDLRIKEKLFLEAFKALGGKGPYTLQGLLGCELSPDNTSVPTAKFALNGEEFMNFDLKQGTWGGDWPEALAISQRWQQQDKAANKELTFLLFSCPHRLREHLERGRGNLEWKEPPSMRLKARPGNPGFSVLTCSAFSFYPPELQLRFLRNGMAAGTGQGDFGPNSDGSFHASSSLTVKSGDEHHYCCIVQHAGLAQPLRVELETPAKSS
Chain of UniProt Q8SPV9 (Q8SPW0 21-119, chain 2 of 2, further chain): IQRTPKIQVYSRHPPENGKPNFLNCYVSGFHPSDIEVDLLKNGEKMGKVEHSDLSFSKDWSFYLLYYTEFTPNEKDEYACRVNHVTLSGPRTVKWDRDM

Substance | Steady State RU [1] [RU] | Steady State RU [2] [RU] | Kd (FcγRIIIa) [µM] | Kd [3] [µM] | Steady State RU, at pH 7.4 [3] [RU] | Kd [4] [µM] | Steady State RU, at pH 7.4 [4] [RU]
bevacizumab (mAb1) LS M428L;N434S | 38.3 | 44 | – | – | – | – | –
mAb1 (bevacizumab) with the DQ Fc-backbone mutation (T256D/T307Q) (antibody) | – | – | 0.361 | 0.11 | 10.9 | 0.089 | 14
bevacizumab (mAb1) YD M252Y;T256D | 22.2 | 27 | – | – | – | – | –
mAb1 (bevacizumab) with the YD Fc-backbone mutation (M252Y/T256D) (antibody) | – | – | 0.645 | 0.12 | 22.2 | 0.086 | 27
bevacizumab (mAb1) DQ T256D;T307Q | 10.9 | 14 | – | – | – | – | –
adalimumab, wild-type Fc (antibody) | – | – | 0.194 | 1.1 | – | 0.645 | –
adalimumab with the LS Fc-backbone mutation (M428L/N434S) (antibody) | – | – | 0.196 | 0.048 | 55.7 | 0.5 | 68.4
mAb1 (bevacizumab) with the DW Fc-backbone mutation (T256D/T307W) (antibody) | – | – | 0.329 | 0.099 | 14.8 | 0.126 | 18
mAb1 (bevacizumab), wild-type Fc (antibody) | – | – | 0.377 | 1.44 | – | 0.5 | –

The remaining lines, values ahead:

Steady State RU [1] [RU] | Steady State RU [2] [RU] | Kd (FcγRIIIa) [µM] | Kd [3] [µM] | Steady State RU, at pH 7.4 [3] [RU] | Kd [4] [µM] | Steady State RU, at pH 7.4 [4] [RU] | Substance
– | – | 0.307 | 0.21 | 38.3 | – | 44 | mAb1 (bevacizumab) with the LS Fc-backbone mutation (M428L/N434S) (antibody)
2.5 | 2.7 | – | – | – | – | – | adalimumab WT Fc (labelled mAb2 in Table 2, mAb3 in Tables 1 and 3)
1.3 | 1.3 | – | – | – | – | – | bevacizumab (mAb1) WT Fc
14.8 | 18 | – | – | – | – | – | bevacizumab (mAb1) DW T256D;T307W
55.7 | 68.4 | – | – | – | – | – | adalimumab LS M428L;N434S
